Reference: patent US20240368285A1 (HEFEI TG IMMUNOPHARMA, published 2024)

Tests used:
[1] = molecular target: T1, MICA on human tumor cells (A-375, A549, HCT-15, MDA-MB-231) (human, UniProt Q29983 24-383); assay: flow cytometry competition on HCT-15 cells; competitor: Biotin-h5A1002, detected with Alexa-647 streptavidin; % binding ratio of Biotin-h5A1002
T1 construct: whole, on cells
T1 sequence (looked up): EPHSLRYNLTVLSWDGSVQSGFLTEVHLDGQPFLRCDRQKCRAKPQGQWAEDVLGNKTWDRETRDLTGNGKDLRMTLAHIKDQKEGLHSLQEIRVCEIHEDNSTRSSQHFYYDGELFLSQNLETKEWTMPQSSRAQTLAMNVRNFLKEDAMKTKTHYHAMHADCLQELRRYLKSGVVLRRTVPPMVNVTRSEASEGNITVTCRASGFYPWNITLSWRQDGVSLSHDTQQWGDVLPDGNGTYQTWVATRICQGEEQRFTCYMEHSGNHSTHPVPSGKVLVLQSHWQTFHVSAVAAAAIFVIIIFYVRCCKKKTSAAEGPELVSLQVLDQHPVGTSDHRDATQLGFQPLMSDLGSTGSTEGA
Description: HCT-15 cells were diluted to a density of 2×10⁶/mL with PBS and added into a 1.5 ml EP tube in a volume of 100 l/tube. 10 l/tube of goat serum was added into the EP tube, and blocking was conducted at 4° C. for 30 min. […] The tube was incubated at 4° C. for 30 min. A biotin-labeled affinity maturation antibody Biotin-h5A1002 (having a heavy chain sequence as set forth in SEQ ID NO: 13 and a light chain sequence as set forth in SEQ ID NO: 14) was added. The tube was incubated at 4° C. for 30 min. 1 mL of PBS was added into the EP tube, and centrifugation was conducted 4° C. at a rate of 3,500 rpm for 5 min. The supernatant was removed. The EP tube was washed once with the PBS, and the supernatant was removed after centrifugation. The cells were resuspended with PBS in a volume of 100 l/tube. An Alexa-647 labeled Streptavidin secondary antibody (purchased from Biolegend) was added into the tube in a volume of 1 l/tube, and the tube was incubated in the dark at 4° C. for 30 min. The tube was washed twice with PBS, and the supernatant was removed after centrifugation. The cells were resuspended with the PBS in a volume of 200 μl/tube, and detection was conducted by a flow cytometer.

MICB001α3-Fc = molecular target: T2, MICB001α3-Fc; assay: ELISA on coated MICB*001 α3-Fc (1 µg/ml), HRP anti-human Fab secondary, OD450
T2 construct: also called MICB*001-Fc; domain α3 of MICB-001 Fc fusion protein
Description: (§1) After the antibodies were added, signal intensity was used for judging the binding characteristics of the antibodies and MICA and MICB.
(§2) The fusion proteins (produced in the Applicant's laboratory; an amino acid sequence of MICA002α3-Fc is as set forth in SEQ ID NO: 22; an amino acid sequence of MICA005α3-Fc is as set forth in SEQ ID NO: 24; an amino acid sequence of MICA008α3-Fc is as set forth in SEQ ID NO: 25; an amino acid sequence of MICA004α3-Fc is as set forth in SEQ ID NO: 23; an amino acid sequence of MICB001α3-Fc is as set forth in SEQ ID NO: 26; and an amino acid sequence of MICB005α3-Fc is as set forth in SEQ ID NO: 27) were diluted to a concentration of 1 μg/ml with PBS and then added into a 96-well plate in a volume of 100 μl/well. The plate was placed at 4° C. overnight. The PBS in the 96-well plate was removed by sucking. After the plate was washed with PBST (that is, PBS having a pH value of 7.2 included 0.1 volume % of Tween 20) for 6 times, PBS containing 10% of BSA was added in a volume of 200 μl/well. The plate was incubated at 37° C. for 2 hours for blocking. The blocking solution was removed. […]

MICA005α3-Fc = molecular target: T3, MICA005α3-Fc (human); assay: ELISA on coated MICA*005 α3-Fc (1 µg/ml), HRP anti-human Fab secondary, OD450
T3 construct: also called MICA*005-Fc; domain α3 of MICA-005 Fc fusion protein
Description: as §1, §2

T2 sequence (chain, as listed by the source limits assumed): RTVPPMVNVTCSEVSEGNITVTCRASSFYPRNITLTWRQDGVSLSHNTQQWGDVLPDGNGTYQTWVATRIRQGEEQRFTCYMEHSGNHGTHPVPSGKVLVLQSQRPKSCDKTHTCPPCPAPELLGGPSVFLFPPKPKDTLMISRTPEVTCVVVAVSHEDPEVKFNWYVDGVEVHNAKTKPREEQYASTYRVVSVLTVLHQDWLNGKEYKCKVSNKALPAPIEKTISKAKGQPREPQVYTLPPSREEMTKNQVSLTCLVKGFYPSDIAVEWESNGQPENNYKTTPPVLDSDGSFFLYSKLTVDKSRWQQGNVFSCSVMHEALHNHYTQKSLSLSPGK
T3 sequence (chain, as listed by the source limits assumed): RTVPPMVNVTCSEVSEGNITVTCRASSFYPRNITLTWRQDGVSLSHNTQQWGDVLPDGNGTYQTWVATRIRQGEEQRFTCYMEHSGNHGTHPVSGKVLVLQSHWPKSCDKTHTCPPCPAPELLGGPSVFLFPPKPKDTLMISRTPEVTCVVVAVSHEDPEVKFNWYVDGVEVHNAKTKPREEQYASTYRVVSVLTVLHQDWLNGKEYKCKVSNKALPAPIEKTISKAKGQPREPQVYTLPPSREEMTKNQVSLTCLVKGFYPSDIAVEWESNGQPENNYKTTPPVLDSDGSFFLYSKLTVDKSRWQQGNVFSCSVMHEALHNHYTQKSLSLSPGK

B1: affinity maturation antibody h5A1002 (antibody, V domains shown)
VH: QVQLQESGPGLVKPSETLSLTCTVSGFSLTTYGGHWIRQPPGKGLEWIGMIWTDGWTDYNAAFISRVTISVDTSKNQFSLKLSSVTAADTAVYYCARKGHGYYYAMDYWGQGTLVTVSS
VL: EIVLTQSPGTLSLSPGERATLSCTASSSVSSSYLHWYQQKPGQAPRLLIYSTSNLISGIPDRFSGSGSGTDFTLTISRLEPEDFAVYYCHQYHRSPFTFGQGTKLEIKR
notes: Human IgG1, kappa; also called h5A1002-hIgG1
Question: B1 was tested. Which “IC50 (read off the curve)” value [1] did it give?
Answer: ~1 µg/mL

Question: What about the “EC50 (read off the curve)” value (MICB001α3-Fc) of the same binder?
Answer: ~0.05 µg/mL

Question: And the “EC50 (read off the curve)” value (MICA005α3-Fc)?
Answer: ~0.07 µg/mL
